Values of other authors, collected in PMC4452855.

Molecular target: IFN-λ1 (Homo sapiens) (UniProt Q8IU54)
Chain of UniProt Q8IU54 (Q8IU54 20-200): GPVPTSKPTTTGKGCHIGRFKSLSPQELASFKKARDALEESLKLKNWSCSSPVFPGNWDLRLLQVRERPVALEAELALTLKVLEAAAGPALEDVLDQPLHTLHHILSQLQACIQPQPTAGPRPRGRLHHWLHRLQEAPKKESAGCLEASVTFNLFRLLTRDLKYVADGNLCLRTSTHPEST

Substance: sIFN-λR1 short splice variant (from UniProt Q8IU57)
- Kd: 73 nM
